Tests used:
PA28γ gene = experiment: Selection of RNA interference target sequence by PA28γ expression suppressing effect; format: cell-based, human; details: among four target sequences from the open reading frame of the PA28γ gene
From the text: A DNA fragment that encodes a short hairpin RNA for knocking down the human PA28γ gene by RNA interference was designed according to the following procedure.
The following four sequences were selected as the target sequences from the open reading frame of the PA28γ gene.
The sequence of SEQ ID NO: 4 corresponds to positions 16 to 36 of the PA28γ coding region represented by SEQ ID NO: 5.

PA28γ = PA28γ detection by western blotting in shRNA-transfected Huh7 OK1 clones; format: cell-based, human; details: clones C5 and C7 vs Huh7 Ok1 cells and control shRNA cells
Method: The DNA fragment was incorporated between the BamHI and Hind III sites of a pSilencer 2.1 U6-hygro vector (Ambion; Austin, Tex.), and introduced by lipofection to Huh7 OK1 cells sensitive to the hepatitis C virus JFH1 strain. The cells were then cultured for 1 week in a 10% fetal bovine serum Dulbecco's modified Eagle's medium supplemented with 0.1 mg/mL hygromycin. The cells were cloned by limiting dilution, and two clones, named C5 and C7, with low PA28γ expression levels were selected by western blotting.
Separately, a commercially available pSilencer 2.1-U6 hygro negative control vector (Ambion) having no complementarity to human PA28γ gene was treated by the same procedure to establish single clones that had the same PA28γ expression level as the parental strain (control cells; hereinafter, also referred to as “control shRNA”).
The Huh7 Ok1 cells, the control cells, and the PA28γ knockdown cells C5 and C7 were lysed, and the lysate was subjected to SDS-polyacrylamide gel electrophoresis for the detection of PA28γ and β-actin by western blotting using anti-PA28γ antibody (Affiniti) and anti-actin antibody (Sigma Aldrich Japan).

hepatitis C virus JFH1 = experiment: Virus titer of culture supernatant after JFH1 infection of PA28γ constant knockdown cells; format: cell-based; details: empty plasmid transfected; JFH1 MOI 0.024; 10 days culture; knockdown cells vs control cells
Method: The control cells (control shRNA) and PA28γknockdown cells C5 and C7 were transfected with pEFFLAGGspGBK or pEFFLAGGsPA28gammaSI plasmid. The next day, the medium was replaced with 10% fetal bovine serum Dulbecco's modified Eagle's medium supplemented with 3 μg/mL puromycin, and the cells were further cultured for 24 hours. The surviving cells were then inoculated in a 12-well plate (2.5×10^4 cells/well), and infected with hepatitis C virus JFH1 at an MOI of 0.024.
The JFH1 gene-containing plasmid pJFH1 was cut with XbaI enzyme, blunted with Mung Bean nuclease, and virus RNA was synthesized using a MEGAscript T7 kit (Ambion). The virus RNA was transfected into Huh7 OK1 cells by electroporation under the conditions 260 V and 960 μF. […] Using Huh7 OK1, the virus titer (ffu/mL) of the culture supernatant was measured according to the method of Wakita et al. (Nat. Med. 11:791-796, 2005), as follows. The Huh7 OK1 cells were infected with the culture supernatant to be measured at 37° C. for 3 hours. […]
The rabbit anti-NS5A antibody prepared by immunizing the peptide from the amino acid residues 409 to 422 of NS5A according to the method described in J. Virol. 79:13473-13482, 2005 was allowed to react with Alexa Fluor® 488-anti-rabbit IgG antibody (Molecular Probe), and the fluorescent cell foci were counted to calculate the virus titer.

HCV replicon RNA = experiment: HCV replicon Renilla luciferase replication assay in control and PA28γ knockdown cells; format: cell-based, hepatitis C virus; details: knockdown cells C5 (KD5) vs control cells (Cntrl5), 24, 48, 96 h normalized to 4 h
Method: Virus replication by replicon was evaluated in the same manner except that the control cells and knockdown cells prepared in Section 1 above were used, as described in Krieger et al. (Krieger et al., J. Virol., 75:4614-4624, 2001).
A cDNA encoding Renilla luciferase was introduced between AscI and PmeI of a plasmid pFK-1389 neo/NS3-3′/NK5.1, instead of a neogene. The resulting plasmid pFK-1389 hRL/NS3-3/NK5.1 was cleaved at ScaI, and […] in vitro using a MEGAscript T7 kit (Ambion). A suspension of Huh7 cells (10×10^6 cells/mL) was prepared, and 400 μl of the suspension was mixed with 10 μg of in vitro transcription RNA. This was followed by electroporation performed under the conditions 270 V and 960 μF using a Gene Pulser™ (Bio-Rad). The electroporated cells were suspended in 25-ml medium, and inoculated in a 12-well culture plate (1 ml/well). Then, luciferase activities at hour 4, 24, 48, and 96 post infection were measured using a Renilla Luciferase assay system (Promega).
The synthesized HCV replicon RNA, and the HCV replicon GND RNA with the inactivated RNA polymerase activity were transfected into control shRNA cells and PA28γ knockdown cells C5, and luciferase activity was measured.
The measured values in each combination were normalized by dividing the values after 24, 48, and 96 hours by the value after 4 hours.

B1: shRNA against PA28γ: short hairpin RNA against target sequence SEQ ID NO: 4 (…), encoded by DNA fragment SEQ ID NO: 6 in pSilencer 2.1 U6-hygro vector (nucleic acid)
DNA: GGATCCGGTGGATCAGGAAGTGAAGTTCAAGAGACTTCACTTCCTGATCCACCTTTTTTGGAAAAGCTT
modifications: the letters are possibly those of the target site
PA28γ gene
  PA28γ expression suppressing effect: remarkable expression suppressing effect
PA28γ
  PA28γ expression level: lower PA28γ expression levels
Hepatitis C virus JFH1
  virus production (virus titer): significantly lower
HCV replicon RNA
  luciferase value (virus replication by replicon): no difference in luciferase value
